Holding throughout (assay): binding, other
The target of assay [1] is T1, SLC45A2 peptide on HLA (human).
T1 peptide: SLYSYFQKV

Assay [2] addresses T2, SLC45A2 peptide on HLA (human).
T2 peptide: RLLGTEFQV

Assay [3] deals with T3, SMC1B peptide on HLA (human).
T3 peptide: KLQKEVVSI

Assay [4] concerns the target T4, TRPM1 peptide on HLA (human).
T4 peptide: RLLEKHISL

In assay [5] the target is T5, SMC1B peptide on HLA (human).
T5 peptide: NIQELIHGA

Assay [6] concerns the target T6, SAGE1 peptide on HLA (human).
T6 peptide: VLIQQLEKA

For assay [7], the target named is T7, TRPM1 peptide on HLA (human).
T7 peptide: RLGQGVPLV

The target of assay [8] is T8, SLC30A8 peptide on HLA (human).
T8 peptide: ILAVDGVLSV

The text below walks through data of patent US20230346885A1 (published 2023).

B1: TCR of SEQ ID NOs 571 and 572 (TCR, V domains shown)
Valpha: KQEVTQIPAALSVPEGENLVLNCSFTDSAIYNLQWFRQDPGKGLTSLLLIQSSQREQTSGRLNASLDKSSGRSTLYIAASQPGDSATYLCAALSYNTDKLIFGTGTRLQVFP
Vbeta: NAGVTQTPKFQVLKTGQSMTLQCAQDMNHNSMYWYRQDPGMGLRLIYYSASEGTTDKGEVPNGYNVSRLNKREFSLRLESAAPSQTSVYFCASRYSPYTEAFFGQGTRLTVV
As for B1, the binding result in assay [1] was “recognises”.

B2: TCR of SEQ ID NOs 565 and 566 (TCR, V domains shown)
Valpha: KQEVTQIPAALSVPEGENLVLNCSFTDSAIYNLQWFRQDPGKGLTSLLLIQSSQREQTSGRLNASLDKSSGRSTLYIAASQPGDSATYLCAVDKAAGNKLTFGGGTRVLVKP
Vbeta: NAGVTQTPKFQVLKTGQSMTLQCAQDMNHNYMYWYRQDPGMGLRLIHYSVGAGITDQGEVPNGYNVSRSTTEDFPLRLLSAAPSQTSVYFCASKNWGTEAFFGQGTRLTVV
For B2, in assay [2], the binding result was “recognises”.

B3: TCR of SEQ ID NOs 591 and 592 (TCR, V domains shown)
Valpha: KQEVTQIPAALSVPEGENLVLNCSFTDSAIYNLQWFRQDPGKGLTSLLLIQSSQREQTSGRLNASLDKSSGRSTLYIAASQPGDSATYLCAVDQDSGYALNFGKGTSLLVTP
Vbeta: DTGVSQNPRHKITKRGQNVTFRCDPISEHNRLYWYRQTLGQGPEFLTYFQNEAQLEKSRLLSDRFSAERPKGSFSTLEIQRTEQGDSAMYLCASSLYRSYEQYFGPGTRLTVT
As for B3, in assay [3], the binding result is given as “recognises”.

B4: TCR of SEQ ID NOs 605 and 606 (TCR, V domains shown)
Valpha: KQEVTQIPAALSVPEGENLVLNCSFTDSAIYNLQWFRQDPGKGLTSLLLIQSSQREQTSGRLNASLDKSSGRSTLYIAASQPGDSATYLCAAATRNNTGKLIFGQGTTLQVKP
Vbeta: NAGVTQTPKFRILKIGQSMTLQCTQDMNHNYMYWYRQDPGMGLKLIYYSVGAGITDKGEVPNGYNVSRSTTEDFPLRLELAAPSQTSVYFCASSKSDLGGYTFGSGTRLTVV
For the molecule B4, in assay [4], the binding result is “recognises”.

B5: TCR of SEQ ID NOs 593 and 594 (TCR, V domains shown)
Valpha: KQEVTQIPAALSVPEGENLVLNCSFTDSAIYNLQWFRQDPGKGLTSLLLIQSSQREQTSGRLNASLDKSSGRSTLYIAASQPGDSATYLCAVRPWGYNQGGKLIFGQGTELSVKP
Vbeta: NAGVTQTPKFQVLKTGQSMTLQCAQDMNHNSMYWYRQDPGMGLRLIYYSASEGTTDKGEVPNGYNVSRSTTEDFPLRLLSAAPSQTSVYFCASSYWGDTEAFFGQGTRLTVV
Take B5: the binding result in assay [5] was “recognises”.

B6: TCR of SEQ ID NOs 549 and 550 (TCR, V domains shown)
Valpha: KQEVTQIPAALSVPEGENLVLNCSFTDSAIYNLQWFRQDPGKGLTSLLLIQSSQREQTSGRLNASLDKSSGRSTLYIAASQPGDSATYLCAVSNDYKLSFGAGTTVTVRA
Vbeta: NAGVTQTPKFRVLKTGQSMTLLCAQDMNHEYMYWYRQDPGMGLRLIHYSVGEGTTAKGEVPDGYNVSRLKKQNFLLGLESAAPSQTSVYFCASSYSSRIYNEQFFGPGTRLTVL
Take B6: the binding result in assay [6] was “recognises”.

B7: TCR of SEQ ID NOs 597 and 598 (TCR, V domains shown)
Valpha: KQEVTQIPAALSVPEGENLVLNCSFTDSAIYNLQWFRQDPGKGLTSLLLIQSSQREQTSGRLNASLDKSSGRSTLYIAASQPGDSATYLCAVWSWGKLQFGAGTQVVVTP
Vbeta: NAGVTQTPKFRVLKTGQSMTLLCAQDMNHEYMYWYRQDPGMGLRLIHYSVGEGTTAKGEVPDGYNVSRLKKQNFLLGLESAAPSQTSVYFCASSRGVPEVFFGQGTRLTVV
For B7, the binding result in assay [5] was “recognises”.

B8: TCR of SEQ ID NOs 563 and 564 (TCR, V domains shown)
Valpha: KQEVTQIPAALSVPEGENLVLNCSFTDSAIYNLQWFRQDPGKGLTSLLLIQSSQREQTSGRLNASLDKSSGRSTLYIAASQPGDSATYLCAVRPTEYGNKLVFGAGTILRVKS
Vbeta: NAGVTQTPKFRVLKTGQSMTLLCAQDMNHEYMYWYRQDPGMGLRLIHYSVGEGTTAKGEVPDGYNVSRLKKQNFLLGLESAAPSQTSVYFCASSNEGGGYTFGSGTRLTVV
Consider B8, for which, in assay [2], the binding result was “recognises”.

B9: TCR of SEQ ID NOs 595 and 596 (TCR, V domains shown)
Valpha: KQEVTQIPAALSVPEGENLVLNCSFTDSAIYNLQWFRQDPGKGLTSLLLIQSSQREQTSGRLNASLDKSSGRSTLYIAASQPGDSATYLCAVKEGTDSWGKFQFGAGTQVVVTP
Vbeta: NAGVTQTPKFRVLKTGQSMTLLCAQDMNHEYMYWYRQDPGMGLRLIHYSVGEGTTAKGEVPDGYNVSRLKKQNFLLGLESAAPSQTSVYFCASSYPSREAFFGQGTRLTVV
Consider B9, for which, in assay [5], the binding result is “recognises”.

B10: TCR of SEQ ID NOs 569 and 570 (TCR, V domains shown)
Valpha: KQEVTQIPAALSVPEGENLVLNCSFTDSAIYNLQWFRQDPGKGLTSLLLIQSSQREQTSGRLNASLDKSSGRSTLYIAASQPGDSATYLCAVRDSWGKFQFGAGTQVVVTP
Vbeta: NAGVTQTPKFRVLKTGQSMTLLCAQDMNHEYMYWYRQDPGMGLRLIHYSVGEGTTAKGEVPDGYNVSRLKKQNFLLGLESAAPSQTSVYFCASSLGQGYGLAYDEQFFGPGTRLTVL
On to B10, for which the binding result in assay [1] was “recognises”.

B11: TCR of SEQ ID NOs 601 and 602 (TCR, V domains shown)
Valpha: KQEVTQIPAALSVPEGENLVLNCSFTDSAIYNLQWFRQDPGKGLTSLLLIQSSQREQTSGRLNASLDKSSGRSTLYIAASQPGDSATYLCAVTDSWGKLQFGAGTQVVVTP
Vbeta: NAGVTQTPKFRVLKTGQSMTLLCAQDMNHEYMYWYRQDPGMGLRLIHYSVGEGTTAKGEVPDGYNVSRLKKQNFLLGLESAAPSQTSVYFCASSYADTYEQYFGPGTRLTVT
Take B11: the binding result in assay [7] is listed as “recognises”.

B12: TCR of SEQ ID NOs 603 and 604 (TCR, V domains shown)
Valpha: KQEVTQIPAALSVPEGENLVLNCSFTDSAIYNLQWFRQDPGKGLTSLLLIQSSQREQTSGRLNASLDKSSGRSTLYIAASQPGDSATYLCAVRDSWGKFQFGAGTQVVVTP
Vbeta: NAGVTQTPKFQVLKTGQSMTLQCAQDMNHNSMYWYRQDPGMGLRLIYYSASEGTTDKGEVPNGYNVSRLNKREFSLRLESAAPSQTSVYFCASSEWAWGLGTEAFFGQGTRLTVV
Regarding B12, the binding result in assay [7] is listed as “recognises”.

B13: TCR of SEQ ID NOs 599 and 600 (TCR, V domains shown)
Valpha: KQEVTQIPAALSVPEGENLVLNCSFTDSAIYNLQWFRQDPGKGLTSLLLIQSSQREQTSGRLNASLDKSSGRSTLYIAASQPGDSATYLCAVSGSWGKLQFGAGTQVVVTP
Vbeta: NAGVTQTPKFRVLKTGQSMTLLCAQDMNHEYMYWYRQDPGMGLRLIHYSVGEGTTAKGEVPDGYNVSRSTTEDFPLRLLSAAPSQTSVYFCASSLMDRPGEQFFGPGTRLTVL
Consider B13, for which the binding result in assay [7] is “recognises”.

B14: TCR of SEQ ID NOs 551 and 552 (TCR, V domains shown)
Valpha: KQEVTQIPAALSVPEGENLVLNCSFTDSAIYNLQWFRQDPGKGLTSLLLIQSSQREQTSGRLNASLDKSSGRSTLYIAASQPGDSATYLCAVTGNQFYFGTGTSLTVIP
Vbeta: NAGVTQTPKFRVLKTGQSMTLQCAQDMNHEYMYWYRQDPGMGLRLIHYSVGAGITDQGEVPNGYNVSRSTTEDFPLRLLSAAPSQTSVYFCASSTYPVWGGEKMFFGSGTQLSVL
For the molecule B14, the binding result in assay [8] was “recognises”.

B15: TCR of SEQ ID NOs 555 and 556 (TCR, V domains shown)
Valpha: KQEVTQIPAALSVPEGENLVLNCSFTDSAIYNLQWFRQDPGKGLTSLLLIQSSQREQTSGRLNASLDKSSGRSTLYIAASQPGDSATYLCAVQTGANNLFFGTGTRLTVIP
Vbeta: NAGVTQTPKFRILKIGQSMTLQCTQDMNHNYMYWYRQDPGMGLRLIHYSVGAGITDQGEVPNGYNVSRSTTEDFPLRLLSAAPSQTSVYFCASSTYPVWGGEKLFFGSGTQLSVL
In the case of B15, in assay [8], the binding result was “recognises”.

B16: TCR of SEQ ID NOs 589 and 590 (TCR, V domains shown)
Valpha: QKEVEQNSGPLSVPEGAIASLNCTYSDRGSQSFFWYRQYSGKSPELIMSIYSNGDKEDGRFTAQLNKASQYVSLLIRDSQPSDSATYLCAVGGRDDKIIFGKGTRLHILP
Vbeta: NAGVTQTPKFQVLKTGQSMTLQCAQDMNHNSMYWYRQDPGMGLRLIYYSASEGTTDKGEVPNGYNVSRSTTEDFPLRLLSAAPSQTSVYFCASSYTDGVNSPLHFGNGTRLTVT
In the case of B16, the binding result in assay [3] is listed as “recognises”.

B17: TCR of SEQ ID NOs 573 and 574 (TCR, V domains shown)
Valpha: KQEVTQIPAALSVPEGENLVLNCSFTDSAIYNLQWFRQDPGKGLTSLLLIQSSQREQTSGRLNASLDKSSGRSTLYIAASQPGDSATYLCAVRGYSTLTFGKGTMLLVSP
Vbeta: NAGVTQTPKFQVLKTGQSMTLQCAQDMNHEYMSWYRQDPGMGLRLIHYSVGAGITDQGEVPNGYNVSRSTTEDFPLRLLSAAPSQTSVYFCASSRGQFTEAFFGQGTRLTVV
On to B17, for which the binding result in assay [1] is recorded as “recognises”.

B18: TCR of SEQ ID NOs 587 and 588 (TCR, V domains shown)
Valpha: KQEVTQIPAALSVPEGENLVLNCSFTDSAIYNLQWFRQDPGKGLTSLLLIQSSQREQTSGRLNASLDKSSGRSTLYIAASQPGDSATYLCAVSPRSNDYKLSFGAGTTVTVRA
Vbeta: NAGVTQTPKFRILKIGQSMTLQCAQDMNHNYMYWYRQDPGMGLKLIYYSVGAGITDKGEVPNGYNVSRSTTEDFPLRLELAAPSQTSVYFCASSTGSSYNSPLHFGNGTRLTVT
For the molecule B18, the binding result in assay [3] is on record as “recognises”.

B19: TCR of SEQ ID NOs 553 and 554 (TCR, V domains shown)
Valpha: QKEVEQNSEPLSVPEGAIASLNCTYSDRGSQSFFWYRQYSGKSPELIMSIYSNGDKEDGRFTAQLNKASQYVSLLIRDSQPSDSATYLCAVNSQGGKLMFGQGTELSVKP
Vbeta: NAGVTQTPKFRVLKTGQSMTLQCAQDMNHNYMYWYRQDPGMGLRLIHYSVGEGTTAKGEVPDGYNVSRLKKQNFLLGLESAAPSQTSVYFCASSYAPWPGPYEQYVGPGTRLTVT
Turning to B19, the binding result in assay [8] is on record as “recognises”.

B20: TCR of SEQ ID NOs 567 and 568 (TCR, V domains shown)
Valpha: KQEVTQIPAALSVPEGENLVLNCSFTDSAIYNLQWFRQDPGKGLTSLLLIQSSQREQTSGRLNASLDKSSGRSTLYIAASQPGDSATYLCAVSGGGADGLTFGKGTHLIIQP
Vbeta: NAGVTQTPKFRILKIGQSMTLQCTQDMNHNYMYWYRQDPGMGLKLIYYSVGAGITDQGEVPNGYNVSRLNKREFSLRLESAAPSQTSVYFCASSEEGWSNSPLHFGNGTRLTVT
For the molecule B20, the binding result in assay [2] is reported as “recognises”.
